Measured values reported in patent US20240092922A1 (EUCURE BEIJING BIOPHARMA, published 2024).
Changes are numbered by the printed parent chain.

B1: 45-7E9-mHvKv-IgG2 (antibody, V domains shown)
VH: QVQLKQSGPGLVQPSQSLSITCTVSGFSLTTYGVHWVRQPPGKGLEWLGVIWSDGNTDYNDAFISRLSITKDNSTSQVFFKMNGLQADDTAIYYCARNSITSVSFDCWGQGTTLTVSS
VL: DIVMTQSQKFMSTSVGDRVSVTCKASQNVGTTVAWYQQRPGQSPKALICSASYRYSGVPDRFTGSGSGTDFTLTISNVQSEDLAEYFCQQYNSYPLTFGSGTKLEIK
B2: 45-7G9-mHvKv-IgG2 (antibody, V domains shown)
VH: QVQLQQPGSALVRPGASVKLSCKASGYTFSNYWIHWVKQRHGQGLEWIGNIYPASDYTNYDEKFKNKGTLTVDTSSSTAYMHLSSLTSEDSAVYYCSRGYFGSLDYWGQGTSVTVSA
VL: DILLTQSPAILSVNPGERVSFSCRASQPIGTGIHWYQQRTNGSPRLLIKSASESISGIPSRFSGSGSGTDFTLTINNVESDDVGDYYCQQSYSWPTTFGGGTKLKIN
B3: 56-2A6-mHvKv-IgG2 (antibody, V domains shown)
VH: QIQLVQSGPELKKPGETVKISCKASGYTFTNYGMNWVKQAPGKGFKWMGWINTYTGEPTYADDFKGRFAFSLEISASTAYLQINNLKNEDTATYFCARRDYLGAMDYWGQGTSVTVSS
VL: ENVLTQSPAIMSASPGEKVTMTCRASSSVSSSYLHWYQQKSGASPKLWIYSTSNLASGVPARFSGSGSGTSYSLTISSVEAEDAATYYCQQYSAYLYTFGGGTKLEIK
B4: 70-3F9-mHvKv-IgG2 (antibody, V domains shown)
VH: QVQLQQPGAELVRPGASVKLSCKASGYTFTSYWINWVKQRPGQGLEWIGNIFPSDSYTNYNQKFKDRAKLTVDKSSSTAYMQLSSPTSEDSAVYYCTRFGSSGYPDYYTMEYWGQGTSVTVSS
VL: DIQMTQSPASLSASVGETVTITCRASGNIDNYLAWYQQKQGKSPQLLVYNAKTLAEGVPSRFSGSGSGTEYSLKINSLQPEDFGSYHCQQYWTIPYTFGGGTKLEIK
B5: 45-8E11-mHvKv-IgG2 (antibody, V domains shown)
VH: EVQLQQSGTVLARPGASVKMSCKASGYSFTSNWMHWVKQRPGQGLEWIGVIYPGNSDTSYNQKFKGKAKLTAVTSASTAYMELSSLTNEDSAVYYCTRGITTAPEYWGQGTTLTVSS
VL: NIVMTQSPKSMSMSVGERVTLSCKASENVGIYVSWYQQKPEQSPKLLIYGASNRYTGVPDRFTGSGSATDFTLTISSVQPEDLADYHCGHTYNYPFTFGSGTKLEIK
B6: 45-8F1-mHvKv-IgG2 (antibody, V domains shown)
VH: B5 VH with N32Y, E82D, E105D
VL: B5 VL with Y32H, N53S, R54G, T56N, H90Q, N93S
B7: 30-5F9-mHvKv-IgG4 (antibody, V domains shown)
VH: QVQLKESGPGLVAPSQSLSITCTVSGFSLTTYDISWVRQPPGKGLEWLGVIWTGGGTNYNSSFMSRLSISKDNSKNQVFLKMNSLQVDDTAIYYCERVDYWGQGTTLTVSS
VL: DVVMTQTPLSLPVSLGDQASISCRSSQSLVHSNGNTYLHWYLQKPGQSPKLLIYKVSNRFSGVPDRFSGSGSGTAFTFKISRVEAEDLGVYFCSQNTHVPWTFGGGTKLEIK
B8: 55-8F6-mHvKv-IgG2 (antibody, V domains shown)
VH: QVQLQQPGAELVRPGASVKLSCKASGYIFTSYWINWVKQRPGQGLEWIGNIYPSDSYTNYNQKFKDKATLTVDKSSSTAYMQLSSPTSEDSAVYYCTRFHYGSSPFDNWGQGTTLTVSS
VL: DIQMTQSTSSLSASLGDRVTISCRASQDISHYLNWYQQKPDGTVKLLIYYTSRLHSGVPSRFSGSGSGTDYSLTISNLEQEDFATYFCQQGHTLPRTFGGGTKLEIK
B9: 59-5E4-mHvKv-IgG2 (antibody, V domains shown)
VH: QVQLQQPGAELVRPGASVKLSCKASGYTFTTYWINWVRQRPGQGLEWIGNIYPSDSYTNYNQKFKDKASLTVDKSSNTAYMQLSSPTSEDSAVYYCAREAGDGTHYYAIDYWGQGTSVTVSS
VL: NIVMTQSPKSMSMSVGERVTLSCKASENVGTYVSWYQQKPEQSPKLLIYGASNRYPGVPDRFTGSGSATDFTLTISSLQAEDLADYHCGQGYSYLRTFGGGTNLEIK
B10: 69-3C2-mHvKv-IgG2 (antibody, V domains shown)
VH: DVQLVESGGGLVQPGGSRKLSCAASGFSFSSFGMHWMRQAPEKGLEWVAYISSGSSAIYYADTVKGRFTISRDNPKNTLFLQMTSLRSEDTAMYYCARDWVDYWGQGTTLTVSS
VL: DIQMTQSPASLSVSVGETVTITCRASENIYSNLVWYQQKQGKSPQLLVYTATKLTNGVPSRFSGSGSGTQYSLKINSLQSEDFGTYYCQHFWDTPYTFGGGTKLEMK
B11: 29-6A5-mHvKv-IgG2 (antibody, V domains shown)
VH: QVQLQQPGAELVRPGASVKLSCKASGYTFSSYWINWVKQRPGQGLEWIGNIYPSDSYTNYNQKFKDKATLTVDKSSSTAYMQLSSPTSDDSAVYYCTRTWEFYYDSVFDYWGQGTTLTVSS
VL: DIKMTQSPSSMYASLGERVTITCKASQDINSYLSWFQQKPGKSPKTLIYRANRLVDGVPSRFSGSGSGQDYSLTISSLEYEDMGIYYCLQYDELPPTFGGGTKLEIK
B12: 1C4-H2K3-IgG4 (antibody, V domains shown)
VH: QVQMVQSGAEVKKPGASVKLSCKASGFTFSSSYINWLRQAPGQSLEWIGWIFAGTGGTYYNQKFTGRVQITRDTSASTAYMELSSLRSEDTAIYYCARHSPRATLFDFWGQGTTLTVSS
VL: EIVLTQSPATLSLSPGERATMSCRASSSVNHMHWYQQKPGFSPRAWIYATSNLASGIPARFSGSGSGTSFTLTISSLEPEDFATYYCQQWSSNPYTFGGGTKLEIK
notes: humanized
B13: 1C4-H2K1-IgG4 (antibody, V domains shown)
VH: B12 VH
VL: B12 VL with M21L, F41Q, S42A, W46L, T84V
notes: humanized
B14: 1C4-H1K3-IgG4 (antibody, V domains shown)
VH: B12 VH with S44R, I48M, Q69T
VL: B12 VL
notes: humanized
B15: 1C4-H1K4-IgG4 (antibody, V domains shown)
VH: B12 VH with S44R, I48M, Q69T
VL: B12 VL with L13A, A19V, K38R, F70Y, T71S
notes: humanized
B16: 1C4-H1K1-IgG4 (antibody, V domains shown)
VH: B12 VH with S44R, I48M, Q69T
VL: B12 VL with M21L, F41Q, S42A, W46L, T84V
notes: humanized; also called 1C4-IgG4-H1K1
B17: 1C4-H1K2-IgG4 (antibody, V domains shown)
VH: B12 VH with S44R, I48M, Q69T
VL: B12 VL with M21L, F41Q, S42A, W46L
notes: humanized
B18: 45-2B3-mHvKv-IgG2 (antibody, V domains shown)
VH: QVQLQQSGPELVKPGASVKISCKTSGYAFSTSWMNWVKQRPGQGLEWIGRIYPGDGDTDYNGRFKGKATLTADKSSSTAYLQLSSLTSVDSAVYFCARLDGYYEVFYFDYWGQGTTLTVSS
VL: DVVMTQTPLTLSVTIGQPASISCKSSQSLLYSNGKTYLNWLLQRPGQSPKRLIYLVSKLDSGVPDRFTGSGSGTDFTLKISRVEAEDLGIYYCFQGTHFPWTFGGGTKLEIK
B19: 70-6F10-mHvKv-IgG2 (antibody, V domains shown)
VH: QVQLQQSGPELVKPGASVKISCKASGYAFNNSWMNWVKQRPGQGLEWIGRIYPGDGDTDYNGKFKGKATLTADKSSSTAYMQLSSLTSVDSAVYFCARLDGNYYYWYFDVWGAGTTVTVSS
VL: not shown
B20: 61-6A7-mHvKv-IgG2 (antibody, V domains shown)
VH: EVQLQQSGAELVRPGALVKLSCKASGFNIKDYYMHWVKRRPEQGLEWIGWIDPENGNTIYDPKFQDKASITADTSSNTAYLQLSSLTSEDTAVYYCAEGLPWYFDYWGQGTTLTVSS
VL: QIILTQSPALMSASPGEKVTMTCSASSSVSDMNWYQQKPRSSPTPWIYLTSNLSSGVPDRFSGSGSGTSYSLTISSMEAEDAATYYCQQWSGNPLTFGAGTRLELK
B21: 16-1C4-mHvKv-IgG4 (antibody, V domains shown)
VH: QGQMQQSGAELVKPGASVKLSCKTSGFTFSSSYINWLKQKPGQSLEWIAWIFAGTGGTYYNQKFTGKAQLTVDTSSGTAYMQFSSLTTEDSAIYYCARHSPRATLFDFWGQGTTLTVSS
VL: QIVLSQSPAILSASPGEKVTMTCRASSSVNHMHWYQQRTGFSPKAWIYATSNLASGVPARFSGSGSGTSYSLTISRVEAEDAATYYCQQWSSNPYTFGGGTKLEIK
B22: 54-8B11-mHvKv-IgG2 (antibody, V domains shown)
VH: QIQLVQSGPELKKPGETVKISCKASKFTFTNYGMNWVKQAPGKALKWMGWINTYTGEPTYADDFKGRFDFSLETSATTAYLQINNLKNEDTATYFCARREYYPWVFVYWGQGTLVTVSA
VL: ENVLTQSPAIMSASPGEKVTMTCSASSSVSYMHWYQQKSSTSPKLWIYDTSKLASGVPGRFSGSGSGNSYSLTISSMEAEDVATYYCFQGSGYPLTFGGGTKLEIK
B23: 45-4B9-mHvKv-IgG2 (antibody, V domains shown)
VH: EVQLQQSGPELVKPGASVKMSCKASGYTFTTYVMYWVKQRPGQGLEWIGYINPYNDDIRYNEKFKGKATLTSDRSSSTAYMELSSLTSEDSAVYLCARQGGDYWGQGTILTVSS
VL: DVQITQSPSYLAASPGETITVNCRASKNINKYLAWYQEKPGKTNKLLIYSGSTLQSGIPSRFSGSGSGTDFTLTISSLEPEDFAVYHCQQYNEYPLTFGAGTKLEMK
B24: 45-8E2-mHvKv-IgG2 (antibody, V domains shown)
VH: EVKLLESGGGLVQPGGSLKLSCAASGFDFSRYWMSWVRQAPGKGLEWIGEIHPDSSAINYTPSLKDKFIISRDNAKNTLYLQMSKVRSEDTALYYCARSYYGRVFDYWGQGTTLTVSS
VL: DIVMTQSPATLSVTPGDRVSLSCRASQSISDYLHWYQQKSHESPRLLIKYASQSISGIPPRFSGSGSGSDFTLSINSVEPEDVGMYYCQDGHSFPPTFGAGTKLELK

Molecular target: T1, Histidine-tagged human 4-1BB protein (h4-1BB-His) (human, UniProt Q07011 24-186)
T1 construct: not shown: histidine tag
Assay: SPR (Biacore T200), antibody on Protein A chip, h4-1BB-His injected;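 also: dissociation phase followed for 300 s, Kd derived as koff divided by kon from the kinetic fit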

Kd [nM] | koff [s⁻¹] | kon [M⁻¹ s⁻¹] | Binder
15.3 | 0.00916 | 600000 | B1
23.1 | 0.0041 | 177000 | B2
14 | 0.00141 | 101000 | B3
0.16 | 0.000159 | 999000 | B4
0.597 | 0.000127 | 214000 | B5
62.3 | 0.00293 | 47000 | B6
9.91 | 0.00247 | 249000 | B7
2.18 | 0.00341 | 1.57e+06 | B8
0.313 | 0.000331 | 1.06e+06 | B9
0.45 | 0.000521 | 1.16e+06 | B10
0.371 | 0.000715 | 1.93e+06 | B11
17.6 | 0.000502 | 28500 | B12
19.4 | 0.000502 | 25900 | B13
21.8 | 0.000623 | 28500 | B14
23.9 | 0.000614 | 25700 | B15
23.1 | 0.000616 | 26700 | B16
22 | 0.000605 | 27500 | B17
4.96 | 0.000138 | 27700 | B18
10.9 | 0.000263 | 24100 | B19
0.359 | 0.000513 | 1.43e+06 | B20
20.5 | 0.000502 | 24400 | B21
12 | 0.00502 | 417000 | B22
110 | 0.00298 | 27200 | B23
1.28 | 0.000413 | 323000 | B24
